Test system: Escherichia coli TOP10
Experiment: shrunken log2 fold change of peptide-encoding DNA abundance (4.5 h post-induction vs induction); higher = less antimicrobial activity (less host growth inhibition)
Details: time post-induction: 4.5 h; library: site-saturation at positions 5, 18, 19, 20
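Further: peptides expressed intracellularly from a pBAD plasmid library in pooled LB shake-flask culture, induced with 0.3% L-arabinose, DNA abundance read by NGS, three biological replicates, DESeq2 with apeglm shrinkage.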

| Sequence | shrunken log2 fold change |
| --- | --- |
| RRIRWRPPRLPRPRPRPWCTPRP | 0.118 |
| RRIRSRPPRLPRPRPRPAWIPRP | -0.0375 |
| RRIRPRPPRLPRPRPRPADQPRP | 0.00426 |
| RRIRRRPPRLPRPRPRPKYKPRP | -0.148 |
| RRIRMRPPRLPRPRPRPHWTPRP | -0.106 |
| RRIRDRPPRLPRPRPRPSAFPRP | 0.124 |
| RRIRIRPPRLPRPRPRPHFRPRP | -0.555 |
| RRIRLRPPRLPRPRPRPPVAPRP | 0.387 |
| RRIRKRPPRLPRPRPRPSRVPRP | 0.24 |
| RRIRHRPPRLPRPRPRPLYEPRP | -0.211 |
| RRIRDRPPRLPRPRPRPFPCPRP | 0.0367 |
| RRIRDRPPRLPRPRPRPEDIPRP | 0.0238 |
| RRIRKRPPRLPRPRPRPTKMPRP | 0.229 |
| RRIRLRPPRLPRPRPRPQAVPRP | 0.0328 |
| RRIRYRPPRLPRPRPRPTSQPRP | 0.054 |
| RRIRMRPPRLPRPRPRPMEWPRP | 0.379 |
| RRIRSRPPRLPRPRPRPYDAPRP | -0.557 |
| RRIRIRPPRLPRPRPRPACRPRP | 0.225 |
| RRIRERPPRLPRPRPRPMKEPRP | -0.0276 |
| RRIRGRPPRLPRPRPRPWHMPRP | -0.345 |
| RRIRHRPPRLPRPRPRPSLVPRP | -0.264 |
| RRIRTRPPRLPRPRPRPCDFPRP | 0.042 |

| Sequence | shrunken log2 fold change |
| --- | --- |
| RRIRRRPPRLPRPRPRPYAFPRP | 0.0067 |
| RRIRERPPRLPRPRPRPNDDPRP | -0.121 |
| RRIRIRPPRLPRPRPRPWLEPRP | -0.293 |
| RRIRNRPPRLPRPRPRPQGNPRP | -0.0905 |
| RRIRIRPPRLPRPRPRPGAVPRP | 0.28 |
| RRIRFRPPRLPRPRPRPPWCPRP | 0.0236 |
| RRIRIRPPRLPRPRPRPFRSPRP | -0.221 |
| RRIRSRPPRLPRPRPRPPVDPRP | 0.327 |
| RRIRWRPPRLPRPRPRPRLGPRP | 0.252 |
| RRIRPRPPRLPRPRPRPFTDPRP | -0.247 |
| RRIRNRPPRLPRPRPRPKAFPRP | -0.0608 |
| RRIRRRPPRLPRPRPRPLAGPRP | 0.477 |
| RRIRGRPPRLPRPRPRPVLQPRP | 0.142 |
| RRIRDRPPRLPRPRPRPITYPRP | 0.024 |
| RRIRNRPPRLPRPRPRPEQYPRP | -0.153 |
| RRIRIRPPRLPRPRPRPSQAPRP | -0.244 |
| RRIRVRPPRLPRPRPRPCFCPRP | -0.252 |
| RRIRHRPPRLPRPRPRPHPMPRP | -0.076 |
| RRIRVRPPRLPRPRPRPDTAPRP | -0.164 |
| RRIRGRPPRLPRPRPRPCDAPRP | 0.473 |
| RRIRDRPPRLPRPRPRPFAKPRP | -0.0729 |
| RRIRKRPPRLPRPRPRPCTLPRP | 0.0143 |

| Sequence | shrunken log2 fold change |
| --- | --- |
| RRIRYRPPRLPRPRPRPFIRPRP | -0.942 |
| RRIRQRPPRLPRPRPRPSPNPRP | 0.16 |
| RRIRNRPPRLPRPRPRPNWAPRP | 0.0482 |
| RRIRSRPPRLPRPRPRPRNMPRP | -0.53 |
| RRIRSRPPRLPRPRPRPLAPPRP | 0.223 |
| RRIRYRPPRLPRPRPRPQMKPRP | -1.17 |
| RRIRFRPPRLPRPRPRPDWQPRP | 0.0911 |
| RRIRTRPPRLPRPRPRPAIMPRP | -0.0824 |
| RRIRGRPPRLPRPRPRPLQFPRP | 0.312 |
| RRIRDRPPRLPRPRPRPCWLPRP | 0.127 |
| RRIRFRPPRLPRPRPRPGPQPRP | 0.447 |
| RRIRCRPPRLPRPRPRPEHTPRP | -0.0466 |
| RRIRSRPPRLPRPRPRPSVWPRP | 0.0903 |
| RRIRFRPPRLPRPRPRPCAVPRP | -0.46 |
| RRIRCRPPRLPRPRPRPWDYPRP | 0.00188 |
| RRIRDRPPRLPRPRPRPFPKPRP | -0.201 |
| RRIRVRPPRLPRPRPRPEKPPRP | 0.00308 |
| RRIRCRPPRLPRPRPRPPKMPRP | 0.222 |
| RRIRLRPPRLPRPRPRPYLQPRP | -0.0746 |
| RRIRMRPPRLPRPRPRPEGEPRP | 0.123 |
| RRIRFRPPRLPRPRPRPAGKPRP | 0.279 |
| RRIRKRPPRLPRPRPRPCNMPRP | -0.0983 |

| Sequence | shrunken log2 fold change |
| --- | --- |
| RRIRFRPPRLPRPRPRPRHHPRP | -0.116 |
| RRIRRRPPRLPRPRPRPQLKPRP | 0.0988 |
| RRIRCRPPRLPRPRPRPDRDPRP | 0.108 |
| RRIRVRPPRLPRPRPRPAMCPRP | -0.178 |
| RRIRQRPPRLPRPRPRPDGLPRP | -0.0465 |
| RRIRYRPPRLPRPRPRPEARPRP | 0.105 |
| RRIRLRPPRLPRPRPRPGPNPRP | 0.0611 |
| RRIRTRPPRLPRPRPRPRAHPRP | -0.186 |
| RRIRQRPPRLPRPRPRPAANPRP | 0.0666 |
| RRIRTRPPRLPRPRPRPRWAPRP | 0.541 |
| RRIRSRPPRLPRPRPRPPMEPRP | -0.117 |
| RRIRWRPPRLPRPRPRPIAPPRP | 0.45 |
| RRIRNRPPRLPRPRPRPCNQPRP | 0.0223 |
| RRIRGRPPRLPRPRPRPFMCPRP | 0.224 |
| RRIRKRPPRLPRPRPRPFSTPRP | -0.187 |
| RRIRIRPPRLPRPRPRPKRHPRP | -0.0187 |
| RRIRTRPPRLPRPRPRPPDGPRP | -0.0813 |
| RRIRGRPPRLPRPRPRPNPTPRP | 0.602 |
| RRIRTRPPRLPRPRPRPEWMPRP | -0.048 |
| RRIRYRPPRLPRPRPRPVPTPRP | -0.0167 |
| RRIRCRPPRLPRPRPRPTFAPRP | 0.359 |
| RRIRWRPPRLPRPRPRPSWPPRP | 0.0582 |

| Sequence | shrunken log2 fold change |
| --- | --- |
| RRIRERPPRLPRPRPRPIYMPRP | -0.372 |
| RRIRHRPPRLPRPRPRPGIDPRP | -0.0302 |
| RRIRHRPPRLPRPRPRPYCCPRP | -0.305 |
| RRIRYRPPRLPRPRPRPYNRPRP | -0.0152 |
| RRIRIRPPRLPRPRPRPPRMPRP | 0.21 |
| RRIRFRPPRLPRPRPRPGSYPRP | -0.0318 |
| RRIRIRPPRLPRPRPRPCSKPRP | -0.267 |
| RRIRQRPPRLPRPRPRPPALPRP | -0.179 |
| RRIRQRPPRLPRPRPRPLWGPRP | -0.0254 |
| RRIRERPPRLPRPRPRPHNIPRP | -0.274 |
| RRIRIRPPRLPRPRPRPVGSPRP | 0.36 |
| RRIRARPPRLPRPRPRPEQIPRP | 0.419 |
| RRIRARPPRLPRPRPRPVSFPRP | 0.368 |
| RRIRWRPPRLPRPRPRPAKKPRP | 0.0808 |
| RRIRMRPPRLPRPRPRPNINPRP | -0.356 |
| RRIRPRPPRLPRPRPRPTYTPRP | -0.272 |
| RRIRHRPPRLPRPRPRPFSGPRP | 0.136 |
| RRIRIRPPRLPRPRPRPECWPRP | 0.202 |
| RRIRQRPPRLPRPRPRPFPQPRP | -0.0621 |
| RRIRIRPPRLPRPRPRPVCPPRP | -0.0123 |
| RRIRHRPPRLPRPRPRPAIDPRP | 0.178 |
